Sequences and labels used below:
B1: LILRB2 Ig1 domain expressed on 293T cells (receptor)
chain: GTIPKPTLWAEPDSVITQGSPVTLSCQGSLEAQEYRLYREKKSASWITRIRPELVKNGQFHIPSITWEHTGRYGCQYYSRARWSELSDPLVLVMTG
notes: The range is stated for the chimeric reporter constructs; also called 1st Ig domain
B2: Angptl2-FLAG, full-length human Angptl2 secreted from transfected 293T cells (ligand)
chain: QEDGFEGTEEGSPREFIYLNRYKRAGESQDKCTYTFIVPQQRVTGAICVNSKEPEVLLENRVHKQELELLNNELLKQKRQIETLQQLVEVDGGIVSEVKLLRKESRNMNSRVTQLYMQLLHEIIRKRDNALELSQLENRILNQTADMLQLASKYKDLEHKYQHLATLAHNQSEIIAQLEEHCQRVPSARPVPQPPPAAPPRVYQPPTYNRIINQISTNEIQSDQNLKVLPPPLPTMPTLTSLPSSTDKPSGPWRDCLQALEDGHDTSSIYLVKPENTNRLMQVWCDQRHDPGGWTVIQRRLDGSVNFFRNWETYKQGFGNIDGEYWLGLENIYWLTNQGNYKLLVTMEDWSGRKVFAEYASFRLEPESEYYKLRLGRYHGNAGDSFTWHNGKQFTTLDRDHDVYTGNCAHYQKGGWWYNACAHSNLNGVWYRGGHYRSRYQDGVYWAEFRGGSYSLKKVVMMIRPNPNTFH
notes: Runs partly as a high molecular weight (>250 kD) multimer; also called full-length Angptl2; FLAG-tagged Angptl2; not shown: FLAG tag at the C terminus
B3: LILRB2 H92S on 293T cells (receptor)
chain: QTGTIPKPTLWAEPDSVITQGSPVTLSCQGSLEAQEYRLYREKKSASWITRIRPELVKNGQFHIPSITWESTGRYGCQYYSRARWSELSDPLVLVMTGAYPKPTLSAQPSPVVTSGGRVTLQCESQVAFGGFILCKEGEEEHPQCLNSQPHARGSSRAIFSVGPVSPNRRWSHRCYGYDLNSPYVWSSPSDLLELLVPGVSKKPSLSVQPGPVVAPGESLTLQCVSDVGYDRFVLYKEGERDLRQLPGRQPQAGLSQANFTLGPVSRSYGGQYRCYGAHNLSSECSAPSDPLDILITGQIRGTPFISVQPGPTVASGENVTLLCQSWRQFHTFLLTKAGAADAPLRLRSIHEYPKYQAEFPMSPVTSAHAGTYRCYGSLNSDPYLLSHPSEPLELVVSGPSMGSSPPPTGPISTPGPEDQPLTPTGSDPQSGLGRHLGVVIGILVAVVLLLLLLLLLFLILRHRRQGKHWTSTQRKADFQHPAGAVGPEPTDRGLQWRSSPAADAQEENLYAAVKDTQPEDGVEMDTRAAASEAPQDVTYAQLHSLTLRRKATEPPPSQEREPPAEPSIYATLAIH
B4: full-length LILRB2 G94D on 293T cells (receptor)
chain: B3 chain with S71H, G73D
notes: also called single mutation in G94
B5: LILRB2 G392D on 293T cells (receptor)
chain: B3 chain with S71H, G371D
B6: LILRB2 T93A on 293T cells (receptor)
chain: B3 chain with S71H, T72A
B7: LILRB2 MHC-S1 mutant (R59A/Y61A) on 293T cells (receptor)
chain: B3 chain with R38A, Y40A, S71H
B8: LILRB2 Q99R on 293T cells (receptor)
chain: B3 chain with S71H, Q78R
B9: LILRB2 T393E on 293T cells (receptor)
chain: B3 chain with S71H, T372E
B10: full-length LILRB2 Y96A/G392D on 293T cells (receptor)
chain: B3 chain with S71H, Y75A, G371D
notes: also called Y96A combined with G392D
B11: full-length LILRB2 R95E on 293T cells (receptor)
chain: B3 chain with S71H, R74E
notes: also called single mutation in R95
B12: full-length LILRB2 Y96A/Y394A on 293T cells (receptor)
chain: B3 chain with S71H, Y75A, Y373A
notes: also called Y96A combined with Y394A
B13: fibrinogen-like domain (FBN) of Angptl2, FLAG-tagged (ligand)
chain: DKPSGPWRDCLQALEDGHDTSSIYLVKPENTNRLMQVWCDQRHDPGGWTVIQRRLDGSVNFFRNWETYKQGFGNIDGEYWLGLENIYWLTNQGNYKLLVTMEDWSGRKVFAEYASFRLEPESEYYKLRLGRYHGNAGDSFTWHNGKQFTTLDRDHDVYTGNCAHYQKGGWWYNACAHSNLNGVWYRGGHYRSRYQDGVYWAEFRGGSYSLKKVVMMIRPNPNTFH
notes: the whole Angptl2 entry is named; Migrates as a 37 kD monomer; also called FBN domain; fibrinogen domain; not shown: FLAG tag
B14: LILRB2 Ig2 domain expressed on 293T cells (receptor)
chain: AYPKPTLSAQPSPVVTSGGRVTLQCESQVAFGGFILCKEGEEEHPQCLNSQPHARGSSRAIFSVGPVSPNRRWSHRCYGYDLNSPYVWSSPSDLLELLVP
notes: The range is stated for the chimeric reporter constructs; also called 2nd Ig domain
B15: Angptl5-FLAG, secreted (ligand)
chain: NCVHHSTDSSVVNIVEDGSNAKDESKSNDTVCKEDCEESCDVKTKITREEKHFMCRNLQNSIVSYTRSTKKLLRNMMDEQQASLDYLSNQVNELMNRVLLLTTEVFRKQLDPFPHRPVQSHGLDCTDIKDTIGSVTKTPSGLYIIHPEGSSYPFEVMCDMDYRGGGWTVIQKRIDGIIDFQRLWCDYLDGFGDLLGEFWLGLKKIFYIVNQKNTSFMLYVALESEDDTLAYASYDNFWLEDETRFFKMHLGRYSGNAGDAFRGLKKEDNQNAMPFSTSDVDNDGCRPACLVNGQSVKSCSHLHNKTGWWFNECGLANLNGIHHFSGKLLATGIQWGTWTKNNSPVKIKSVSMKIRRMYNPYFK
notes: read as Angptl5; not shown: FLAG tag at the C terminus
B16: LILRB2 Ig3 domain expressed on 293T cells (receptor)
chain: VSKKPSLSVQPGPVVAPGESLTLQCVSDVGYDRFVLYKEGERDLRQLPGRQPQAGLSQANFTLGPVSRSYGGQYRCYGAHNLSSECSAPSDPLDILITGQ
notes: The range is stated for the chimeric reporter constructs; also called 3rd Ig domain
B17: LILRB2 Ig4 domain expressed on 293T cells (receptor)
chain: IRGTPFISVQPGPTVASGENVTLLCQSWRQFHTFLLTKAGAADAPLRLRSIHEYPKYQAEFPMSPVTSAHAGTYRCYGSLNSDPYLLSHPSEPLELVVSGPSMGSSPPPTGPISTPGPEDQPLTPTGSDPQSGLGRHL
notes: The range is stated for the chimeric reporter constructs; also called 4th Ig domain

The target of test [1] is B2. The test can be described thus: flow cytometry, Angptl2 on 293T cells expressing the domain. Here is the method: (§1) Flow cytometry. […] Cells were harvested at 48 h for analysis. […] Anti-LILRB2-PE was used as indicated. Cells were analyzed using either a FACSCalibur or FACSAria instrument (Becton Dickinson).
LILRB2 contains four extracellular immunoglobulin (Ig)-like domains. Takai et al., J Biomed Biotechnol. 2011; 2011:275302. […] To test this hypothesis, a number of domain and site-specific mutations of LILRB2 were generated for the flow cytometry-based cell surface ligand binding assay and chimeric reporter assay.
(A flow cytometer gives signals particle by particle.)

The target in test [2] is T1, full-length LILRB2 with mutations in AA 92-100 (Mut-8 aa) (human).
T1 construct: also called the full-length LILRB2 with the same mutation
Kind of test: flow cytometry, Angptl2 on 293T cells expressing mutant LILRB2. Here is the method:
as §1

The target of test [3] is B4. The description is as above. Here is the method:
as §1

For test [4], the target named is B11. Described as above. How it is done:
as §1

In test [5] the target is T2, full-length LILRB2 Y96A on 293T cells (human, UniProt Q8N423 22-597).
T2 construct: also called single mutation in Y96
Described as above. How it is done: as §1

Test [6] has as its target B2. Kind of test: flow cytometry, ligand on mutant LILRB2 (FIG. 6G). How it is done: as §1
Test [7] addresses B2. The test can be described thus: flow cytometry, Angptl2 on 293T cells expressing the mutant. How it is done: as §1
Test [8] deals with T3, human LILRB2, wild-type full-length, on cells (human, UniProt Q8N423 22-597).
T3 construct: the assay field says which; also called WT LILRB2; full-length LILRB2
The test can be described thus: flow cytometry, human cord blood mononuclear cells, anti-FLAG-APC and anti-human LILRB2-PE. Here is the method: as §1

The target in test [9] is T3, human LILRB2, wild-type full-length, on …. The test can be described thus: flow cytometry, LILRB2 on 293T cells.

Where a chain is given by its changes, count along the chain named. Names and notes keep the numbering of the source.

Regarding B1, the binding result in test [1] was “no binding”. Take B2: in test [2], the “decrease of Angptl2 binding relative to the wild-type protein” value is over 50%. Moreover, the “reduction of Angptl2 binding” value in [3], in test [4] and in test [5] was 50% throughout. B3: the binding result in test [6] is reported as “binds”. As to B4, the binding result in test [6] was “binds”. On to B5, for which the binding result in test [6] is “binds”. On to B6, for which the binding result in [6] is recorded as “binds”. In the case of B7, in test [6], the binding result is reported as “binds”. On to B8, for which, in [6], the binding result is reported as “binds”. With B9, the binding result in test [6] is “binds”. Regarding B10, in test [7], the binding result was “no binding”.

As to B11, the binding result in [6] is on record as “binds”. On to B12, for which, in [7], the binding result is listed as “no binding”. For the molecule B13, the binding result in test [8] is given as “no binding”. Regarding B14, the binding result in test [1] is “no binding”.

Consider B15, for which the binding result in [9] is recorded as “binds”.

Consider B16, for which the binding result in [1] is reported as “no binding”. As to B17, in test [1], the binding result is recorded as “no binding”.

(Values after patent US20170260508A1 (FRED HUTCHINSON CANCER RESEARCH CENTER, published 2017).)
